Experimental data taken from patent US20050009749A1.

Target: β amyloid (Aβ) 1-40 peptide
Test: cell-based or functional assay

Chain of β amyloid (Aβ) 1-40 peptide (peptide, as listed by the source): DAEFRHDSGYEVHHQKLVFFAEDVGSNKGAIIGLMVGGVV

**Q.** How did the protection of SHSY-5Y neuronal cells from Aβ-induced death, MTT assay (% more surviving cells than control) turn out when “AABA protein (β amyloid aggregation blocking activity protein) from Streptomyces sp. KK565 (enzyme)” was run?
**A.** 20

**Q.** With “AABA protein (β amyloid aggregation blocking activity protein) from Streptomyces sp. KK565” as the substance, how does the inhibition of Aβ aggregation, Congo red assay read?
**A.** 93.2 % inhibition

**Q.** And the inhibition of Aβ aggregation, thioflavin-T fluorescence assay?
**A.** 97 % inhibition
